Where no end group is shown, it is not given here. [ ]: non-standard residue; d: D form. sY = N[C@@H](Cc1ccc(OS(=O)(=O)O)cc1)C(=O)O
Molecular target: T1, mouse cholecystokinin 1 receptor (mouse (endogenous in isolated mouse pancreatic acini)) (UniProt O08786)
T1 sequence: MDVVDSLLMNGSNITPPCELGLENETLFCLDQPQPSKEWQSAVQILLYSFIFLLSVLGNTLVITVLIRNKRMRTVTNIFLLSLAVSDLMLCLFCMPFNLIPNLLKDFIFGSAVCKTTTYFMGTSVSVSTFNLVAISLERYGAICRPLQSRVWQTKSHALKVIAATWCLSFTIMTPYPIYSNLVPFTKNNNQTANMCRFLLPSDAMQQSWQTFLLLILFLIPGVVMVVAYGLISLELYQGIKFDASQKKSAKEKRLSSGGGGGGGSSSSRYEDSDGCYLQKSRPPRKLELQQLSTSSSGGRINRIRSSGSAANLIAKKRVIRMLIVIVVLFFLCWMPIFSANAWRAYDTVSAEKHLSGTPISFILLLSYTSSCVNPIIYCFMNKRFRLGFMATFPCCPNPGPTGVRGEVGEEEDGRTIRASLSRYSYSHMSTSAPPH

Binder: D[sY]MGWMDF-NH2 (ends and bridges not checked) [Sulfated cholecystokinin octapeptide]
- CCK concentration needed to induce regular cytosolic calcium oscillations (Fura-2 imaging) in perifused isolated mouse pancreatic acini (data in Figure S1): 10 pM
